Results reported in the supplement of paper PMC9112550, “Optimization of the antimicrobial peptide Bac7 by deep mutational scanning” (BMC Biology, 2022).

Tested on: Escherichia coli TOP10
Assay: shrunken log2 fold change of peptide-encoding DNA abundance (4.5 h post-induction vs induction); higher = less antimicrobial activity (less host growth inhibition)
Conditions: time post-induction: 4.5 h; library: site-saturation at positions 5, 18, 19, 20
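Further: peptides expressed intracellularly from a pBAD plasmid library in pooled LB shake-flask culture, induced with 0.3% L-arabinose, DNA abundance read by NGS, three biological replicates, DESeq2 with apeglm shrinkage.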

Row | Sequence | shrunken log2 fold change
1 | RRIRPRPPRLPRPRPRPEHSPRP | -0.0353
2 | RRIRKRPPRLPRPRPRPNVKPRP | 0.0115
3 | RRIRGRPPRLPRPRPRPVECPRP | 0.289
4 | RRIRQRPPRLPRPRPRPNDRPRP | -0.16
5 | RRIRVRPPRLPRPRPRPEHWPRP | 0.28
6 | RRIRIRPPRLPRPRPRPNCHPRP | -0.232
7 | RRIRPRPPRLPRPRPRPHTKPRP | 0.00533
8 | RRIRMRPPRLPRPRPRPSKGPRP | -0.071
9 | RRIRCRPPRLPRPRPRPMCTPRP | -0.098
10 | RRIRARPPRLPRPRPRPWHWPRP | 0.209
11 | RRIRRRPPRLPRPRPRPSRYPRP | 1.35
12 | RRIRHRPPRLPRPRPRPQVVPRP | -0.101
13 | RRIRSRPPRLPRPRPRPIIAPRP | -0.0683
14 | RRIRSRPPRLPRPRPRPQTDPRP | -0.0826
15 | RRIRTRPPRLPRPRPRPLQKPRP | -0.134
16 | RRIRERPPRLPRPRPRPCSIPRP | -0.471
17 | RRIRDRPPRLPRPRPRPSKKPRP | -0.217
18 | RRIRCRPPRLPRPRPRPRRQPRP | 0.403
19 | RRIRSRPPRLPRPRPRPLEAPRP | 0.177
20 | RRIRGRPPRLPRPRPRPEMDPRP | 0.982
21 | RRIRFRPPRLPRPRPRPDWWPRP | -0.0896
22 | RRIRMRPPRLPRPRPRPNSLPRP | -0.0986
23 | RRIRQRPPRLPRPRPRPTMDPRP | 0.0884
24 | RRIRARPPRLPRPRPRPRQLPRP | 0.449
25 | RRIRLRPPRLPRPRPRPNMRPRP | 0.0295

Row | Sequence | shrunken log2 fold change
26 | RRIRHRPPRLPRPRPRPALHPRP | 0.111
27 | RRIRGRPPRLPRPRPRPVGMPRP | 0.907
28 | RRIRERPPRLPRPRPRPTCNPRP | -0.315
29 | RRIRHRPPRLPRPRPRPRSFPRP | -0.0488
30 | RRIRQRPPRLPRPRPRPTIVPRP | -0.119
31 | RRIRIRPPRLPRPRPRPEDCPRP | 0.00952
32 | RRIRQRPPRLPRPRPRPMNSPRP | -0.468
33 | RRIRCRPPRLPRPRPRPYIIPRP | -0.985
34 | RRIRQRPPRLPRPRPRPIYDPRP | -0.213
35 | RRIRDRPPRLPRPRPRPAPVPRP | 0.49
36 | RRIRARPPRLPRPRPRPFCRPRP | 0.211
37 | RRIRPRPPRLPRPRPRPFSDPRP | -0.0761
38 | RRIRFRPPRLPRPRPRPMVMPRP | -0.696
39 | RRIRERPPRLPRPRPRPRAHPRP | 0.352
40 | RRIRKRPPRLPRPRPRPHYNPRP | -0.428
41 | RRIRSRPPRLPRPRPRPYCEPRP | -0.352
42 | RRIRMRPPRLPRPRPRPSYEPRP | -0.293
43 | RRIRWRPPRLPRPRPRPSAAPRP | 0.921
44 | RRIRHRPPRLPRPRPRPTAIPRP | -0.183
45 | RRIRSRPPRLPRPRPRPYYLPRP | -0.7
46 | RRIRPRPPRLPRPRPRPLIHPRP | -0.472
47 | RRIRWRPPRLPRPRPRPMCHPRP | -0.115
48 | RRIRTRPPRLPRPRPRPQSIPRP | -0.125
49 | RRIRRRPPRLPRPRPRPHPVPRP | 0.175
50 | RRIRERPPRLPRPRPRPKRNPRP | -0.114

Row | Sequence | shrunken log2 fold change
51 | RRIRARPPRLPRPRPRPTCKPRP | 0.0463
52 | RRIRCRPPRLPRPRPRPGMKPRP | 0.062
53 | RRIRSRPPRLPRPRPRPHHCPRP | -0.0623
54 | RRIRGRPPRLPRPRPRPGHWPRP | 0.387
55 | RRIRKRPPRLPRPRPRPLYLPRP | -0.17
56 | RRIRKRPPRLPRPRPRPSHRPRP | -0.0303
57 | RRIRLRPPRLPRPRPRPEWIPRP | 0.00477
58 | RRIRHRPPRLPRPRPRPYMTPRP | -0.313
59 | RRIRVRPPRLPRPRPRPPWVPRP | 0.297
60 | RRIRGRPPRLPRPRPRPEDIPRP | 0.165
61 | RRIRQRPPRLPRPRPRPAPEPRP | 0.228
62 | RRIRRRPPRLPRPRPRPMYDPRP | -0.267
63 | RRIRGRPPRLPRPRPRPLLYPRP | 0.473
64 | RRIRERPPRLPRPRPRPHYCPRP | -0.0425
65 | RRIRVRPPRLPRPRPRPFSQPRP | -0.0697
66 | RRIRDRPPRLPRPRPRPVLVPRP | 0.0945
67 | RRIRDRPPRLPRPRPRPLAKPRP | 0.96
68 | RRIRKRPPRLPRPRPRPCHGPRP | 0.0847
69 | RRIRERPPRLPRPRPRPFHLPRP | -0.173
70 | RRIRPRPPRLPRPRPRPDYWPRP | 0.207
71 | RRIRMRPPRLPRPRPRPILSPRP | 0.00774
72 | RRIRCRPPRLPRPRPRPGECPRP | 0.198
73 | RRIRERPPRLPRPRPRPRHNPRP | -0.137
74 | RRIRCRPPRLPRPRPRPGVIPRP | -0.0294
75 | RRIRTRPPRLPRPRPRPYRFPRP | -0.0191
